“Also recorded” adds a separate entry of the source.
Tested on: Mycobacterium tuberculosis (H37Rv, clinical drug-resistant strain94120)
Assay type: cell-based

Molecule | bacteriostatic or bactericidal role | growth of bacteria lawn, strain94120 | growth of bacteria lawn, strain H37Rv, re-culture test
PMC-AM1: Fusion of antibody mimetic AM1 (VHCDR1-VHFR2-VLCDR3, Seq ID No.2) to C-terminus of Colicin Ia; Seq ID No.6 (protein, The amino acid sequence of antibiotic PMC-AM1) SDPVRITNPGAESLGYDSDGHEIMAVDIYVNPPRVDVFHGTPPAWSSFGNKTIWGGNEWVDDSPTRSDIEKRDKEITAYKNTLSAQQKENENKRTEAGKRLSAAIAAREKDENTLKTLRAGNADAADITRQEFRLLQAELREYGFRTEIAGYDALRLHTESRMLFADADSLRISPREARSLIEQAEKRQKDAQNADKKAADMLAEYERRKGILDTRLSELEKNGGAALAVLDAQQARLLGQQTRNDRAISEARNKLSSVTESLNTARNALTRAEQQLTQQKNTPDGKTIVSPEKFPGRSSTNHSIVVSGDPRFAGTIKITTSAVIDNRANLNYLLSHSGLDYKRNILNDRNPVVTEDVEGDKKIYNAEVAEWDKLRQRLLDARNKITSAESAVNSARNNLSARTNEQKHANDALNALLKEKENIRNQLSGINQKIAEEKRKQDELKATKDAINFTTEFLKSVSEKYGAKAEQLAREMAGQAKGKKIRNVEEALKTYEKYRADINKKINAKDRAAIAAALESVKLSDISSNLNRFSRGLGYAGKFTSLADWITEFGKAVRTENWRPLFVKTETIIAGNAATALVALVFSILTGSALGIIGYGLLMAVTGALIDESLVEKANKFWGISYWLHWIKQRPGQGLWIGSQSTHVPRT | bactericidal effect rather than simply antibacterial effect | no cell growth; also recorded: no growth of bacteria lawn | still no cell growth; also recorded: always no growth of bacteria lawn
Colicin Ia (protein, UniProt P06716 1-626, looked up, Wild-type bacterial toxin secreted by E. coli forming ion channels) Colicin-Ia: MSDPVRITNPGAESLGYDSDGHEIMAVDIYVNPPRVDVFHGTPPAWSSFGNKTIWGGNEWVDDSPTRSDIEKRDKEITAYKNTLSAQQKENENKRTEAGKRLSAAIAAREKDENTLKTLRAGNADAADITRQEFRLLQAELREYGFRTEIAGYDALRLHTESRMLFADADSLRISPREARSLIEQAEKRQKDAQNADKKAADMLAEYERRKGILDTRLSELEKNGGAALAVLDAQQARLLGQQTRNDRAISEARNKLSSVTESLNTARNALTRAEQQLTQQKNTPDGKTIVSPEKFPGRSSTNHSIVVSGDPRFAGTIKITTSAVIDNRANLNYLLSHSGLDYKRNILNDRNPVVTEDVEGDKKIYNAEVAEWDKLRQRLLDARNKITSAESAVNSARNNLSARTNEQKHANDALNALLKEKENIRNQLSGINQKIAEEKRKQDELKATKDAINFTTEFLKSVSEKYGAKAEQLAREMAGQAKGKKIRNVEEALKTYEKYRADINKKINAKDRAAIAAALESVKLSDISSNLNRFSRGLGYAGKFTSLADWITEFGKAVRTENWRPLFVKTETIIAGNAATALVALVFSILTGSALGIIGYGLLMAVTGALIDESLVEKANKFWGI |  |  | quantity of cells growth; also recorded: a mass of bacteria lawn growing

Reference: patent publication US9073989B2, “Antibiotic comprising an antibody mimetic, its preparation methods and uses thereof” (PROTEIN DESIGN LAB, LTD, priority 2011, dated 2015)
